How the values were obtained:
[1] = test system: truncated FBP1^185-644 protein
[2] = test system: truncated FBP1^1-371 protein
[3] = test system: truncated FBP1^1-443 protein
[4] = test system: truncated FBP1^185-443 protein
[5] = test system: truncated FBP1^372-644 protein

With “purified recombinant EV71 viral protease wild-type 2A^pro” as the substance, how does the “in vitro proteinase cleavage assay of truncated FBP1 proteins” value [1] read?
Its value is “FBP1^1-443, FBP1^185-644 and FBP1^185-443 containing the Gly-371 cleavage site were cleaved by 2A^pro; 19-kDa cleavage product, and FBP1^185-644 also yielded a 33-kDa product”.

And the “in vitro proteinase cleavage assay (10 ug 2A^pro, 37 C, 4 hours)” value (FBP1-G366K)?
The value was “in comparison with FBP1-G364K, FBP1-G366K, FBP1-G374K and FBP1-G375K, FBP1-G371K could not be cleaved by 2A^pro”.

And the “in vitro proteinase cleavage kinetics of [35S] methionine-labeled FBP1 (data not shown)” value (wild-type FBP1 protein)?
Its value is “Cp-N and Cp-C were detected after 15 minutes of incubation with 2A^pro, and the levels of Cp-N and Cp-C increased over the 4 hours of incubation”.

What about the “in vitro proteinase cleavage of [35S] methionine-labeled FBP1 (SDS-PAGE, autoradiography)” value (wild-type FBP1 protein) of the same substance?
The value was “FBP1 was cleaved by 2A^pro in a dose-dependent manner that resulted in two major Cps, a 38-kDa Cp designated as Cp-N, and a 33-kDa Cp designated as Cp-C”.

What about the “in vitro proteinase cleavage assay (10 ug 2A^pro, 37 C, 4 hours)” value (FBP1-G371K) of the same substance?
Its value is “FBP1-G371K could not be cleaved by 2A^pro, as shown by the absence of Cp-N and Cp-C cleavage products”.

What about the “in vitro proteinase cleavage assay (10 ug 2A^pro, 37 C, 4 hours)” value (FBP1-G364-380K) of the same substance?
The value was “but not on mutant FBP1-G364-380K”.

And the “in vitro proteinase cleavage assay (10 ug 2A^pro, 37 C, 4 hours)” value (FBP1-G345-362K)?
Its value is “in vitro 2A^pro cleavage occurs on mutant FBP1-G345-362K”.

What about the “in vitro proteinase cleavage assay of truncated FBP1 proteins” value [2] of the same substance?
Its value is “both truncated FBP1^1-371 and FBP1^372-644 proteins were not cleaved by 2A^pro”.

What about the “in vitro proteinase cleavage assay of truncated FBP1 proteins” value [3] of the same substance?
Its value is “FBP1^1-443, FBP1^185-644 and FBP1^185-443 containing the Gly-371 cleavage site were cleaved by 2A^pro; a 38-kDa cleavage product was yielded from FBP1^1-443”.

What about the “in vitro proteinase cleavage assay of truncated FBP1 proteins” value [4] of the same substance?
Its value is “FBP1^1-443, FBP1^185-644 and FBP1^185-443 containing the Gly-371 cleavage site were cleaved by 2A^pro; 19-kDa cleavage product”.

And the “in vitro proteinase cleavage assay (10 ug 2A^pro, 37 C, 4 hours)” value (FBP1-G375K)?
Its value is “in comparison with FBP1-G364K, FBP1-G366K, FBP1-G374K and FBP1-G375K, FBP1-G371K could not be cleaved by 2A^pro”.

What about the “in vitro proteinase cleavage assay (10 ug 2A^pro, 37 C, 4 hours)” value (FBP1-G374K) of the same substance?
The value was “in comparison with FBP1-G364K, FBP1-G366K, FBP1-G374K and FBP1-G375K, FBP1-G371K could not be cleaved by 2A^pro”.

What about the “in vitro proteinase cleavage assay of truncated FBP1 proteins” value [5] of the same substance?
Its value is “both truncated FBP1^1-371 and FBP1^372-644 proteins were not cleaved by 2A^pro”.

And the “in vitro proteinase cleavage assay (10 ug 2A^pro, 37 C, 4 hours)” value (FBP1-G364K)?
The value was “in comparison with FBP1-G364K, FBP1-G366K, FBP1-G374K and FBP1-G375K, FBP1-G371K could not be cleaved by 2A^pro”.

— patent US20200317739
